Reference: patent US20260035432A1 (PRECIGEN, published 2026)
Where a chain is given by its changes, count along the chain named. In names and notes the source's numbering stands. Values belong to the molecule of their own block, whether it stands above or below them.

What was measured:
[1] = molecular target: Signal peptide CD28, Stalk CD8α; assay: flow cytometry of T cells nucleofected with the CAR construct, Day 1, Protein L-biotin + SA-APC against CD3-FITC; the filing reports it as CAR surface expression (legend: the short CD8α stalk does not permit surface expression)
[2] = molecular target: Signal peptide CD8α, Stalk CD8α; assay: as above
[3] = molecular target: Signal peptide Ig Kappa, Stalk CD8α; assay: as above
[4] = molecular target: Signal peptide mIgVH, Stalk CD8α; assay: as above
[5] = molecular target: Extracellular domain (ECD) of ROR1 fused to human Fc region (UniProt Q01973); assay: ROR1-Fc affinity of the construct's binding domain; method not given
ROR1-His [6] = molecular target: T1, ROR1-His (UniProt Q01973 30-403, limits assumed); assay: ROR1-His affinity of the construct's binding domain; method not given; ROR1-His column, not ROR1-Fc (2.31E-08)
T1 construct: The construct is described nowhere; not shown: His tag

ROR1-His [7] = molecular target: T1, ROR1-His; assay: ROR1-His affinity of the construct's binding domain; method not given
[8] = molecular target: Extracellular domain (ECD) of ROR1 fused to human Fc region (UniProt Q01973); assay: SPR, Biacore 3000; ROR1 ECD-human Fc on CM5 chip, antibody in solution; ROR1 ECD-human Fc on the chip per paragraph 451; same number stands under ROR1-His in Table 9
[9] = molecular target: T2, Extracellular domain (ECD) of ROR1 fused to human Fc region (UniProt Q01973 30-406, limits assumed); assay: SPR, Biacore 3000; ROR1 ECD-human Fc on CM5 chip, antibody in solution
T2 construct: extracellular domain; also called ROR1-Fc; ROR1-FC; not shown: human Fc region
Experimental: Different concentrations of humanized antibodies were injected in solution phase and data was analyzed using BIAevaluation to calculate Kd of the antibodies.

[10] = molecular target: Extracellular domain (ECD) of ROR1 fused to human Fc region (UniProt Q01973); assay: as above

T2 sequence (Q01973 30-406 limits assumed): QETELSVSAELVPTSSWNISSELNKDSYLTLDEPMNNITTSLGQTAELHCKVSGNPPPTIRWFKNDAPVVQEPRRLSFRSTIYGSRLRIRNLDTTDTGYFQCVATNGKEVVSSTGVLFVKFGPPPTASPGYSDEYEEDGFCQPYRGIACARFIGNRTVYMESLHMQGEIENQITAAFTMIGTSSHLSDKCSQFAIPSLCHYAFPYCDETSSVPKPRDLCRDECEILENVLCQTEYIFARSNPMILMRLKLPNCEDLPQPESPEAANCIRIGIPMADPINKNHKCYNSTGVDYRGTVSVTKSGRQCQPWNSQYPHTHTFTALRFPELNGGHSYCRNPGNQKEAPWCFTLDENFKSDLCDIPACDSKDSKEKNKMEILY
Sequence of Extracellular domain (ECD) of ROR1 fused to human Fc region (UniProt Q01973) (Q01973 30-406 limits assumed): as above
T1 sequence (Q01973 30-403 limits assumed): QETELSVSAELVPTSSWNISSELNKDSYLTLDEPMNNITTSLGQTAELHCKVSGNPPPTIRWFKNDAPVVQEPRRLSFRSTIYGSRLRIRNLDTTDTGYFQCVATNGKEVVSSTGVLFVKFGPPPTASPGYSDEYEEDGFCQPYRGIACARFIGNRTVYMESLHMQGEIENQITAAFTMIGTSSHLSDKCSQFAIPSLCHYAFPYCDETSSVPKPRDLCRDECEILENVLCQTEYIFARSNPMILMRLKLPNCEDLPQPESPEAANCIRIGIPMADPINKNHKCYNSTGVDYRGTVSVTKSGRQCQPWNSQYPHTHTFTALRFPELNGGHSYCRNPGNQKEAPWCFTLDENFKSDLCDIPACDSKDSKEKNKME

- fraction in quadrant Q6 (Protein L-biotin-SA-APC+, CD3-FITC+) [1]: 2.6
- fraction in quadrant Q6 (Protein L-biotin-SA-APC+, CD3-FITC+) [2]: 1.88
- fraction in quadrant Q6 (Protein L-biotin-SA-APC+, CD3-FITC+) [3]: 2.53
- fraction in quadrant Q6 (Protein L-biotin-SA-APC+, CD3-FITC+) [4]: 2.13
Molecule: Protein L-biotin

- Kd [5]: 23.1 nM
- Kd (ROR1-His [6]): 70.7 nM
B1: Murine ROR1_v2 binding domain (VL and VH of MurineROR1_v2 (VL-VH)) (antibody, V domains shown)
VH: EVKLVESGGGLVKPGGSLKLSCAASGFTFSSYAMSWVRQIPEKRLEWVASISRGGTTYYPDSVKGRFTISRDNVRNILYLQMSSLRSEDTAMYYCGRYDYDGYYAMDYWGQGTSVTVSS
VL: DVQITQSPSSLYASLGERVTITCKASPDINSYLSWFQQKPGKSPKTLIYRANRLVDGVPSRFSGGGSGQDYSLTINSLEYEDMGIYYCLQYDEFPYTFGGGTKLEMK
notes: also called Murine ROR1_v2 VH; murine ROR1 scFv

- Kd [9]: 3.87 nM
B4: Hum ROR1_18VH_(G4S)3x_VL_07 (antibody, mouse IgG1, V domains shown)
VH: EVQLVESGGGLVQPGGSLRLSCSASGFTFSSYAMSWVRQVPGKGLVWISSISRGGTTYYADSVRGRFIISRDNAKNTLYLEMNNLRGEDTAVYYCARYDYDGYYAMDYWGQGTLVTVSS
VL: DIQMTQSPSSLSASVGDRVTITCRASPDINSYVAWYQQKPGKAPKLLIYRANFLESGVPSRFSGSRSGTDFTLTISSLQPEDFATYYCLQYDEFPYTFGQGTKVEIK
notes: The name reads as an scFv with a (G4S)3 linker; The method text says variable regions were fused to mouse constant regions (chimeric mouse IgG1); VH/VL are tied by the numbers in the name

- Kd [10]: 0.372 nM
- Kd [5]: 0.271 nM
- Kd (ROR1-His [7]): 0.372 nM
B6: Hum ROR1_18VH_(G4S)3x_VL_04 (antibody, mouse IgG1, V domains shown)
VH: B4 VH
VL: B4 VL with R24Q, V33L, A34N, F53N, S56T, R66G, F83I, V104L
notes: as for B4

- Kd [9]: 1.6 nM
B8: Hum ROR1_18VH_(G4S)3x_VL_16 (antibody, mouse IgG1, V domains shown)
VH: B4 VH
VL: B4 VL with R24K, V33L, A34N, L46V, F53R, E55V, S56D, R66G, F71Y
notes: as for B4

- Kd [9]: 4.52 nM
B11: Hum_design_14_variant5 (antibody, V domains shown)
VH: EVQLVESGGGLVQPGGSLRLSCATSGFTFSSYAMSWMRKAPGKGLEYVASISRGGTTYYADSVKGRFTISVDKSKNTLYLQMNSLRAEDTAVYYCGRYDYDGYYAMDYWGQGTLVTVSS
VL: B4 VL with R24K, V33L, A34N, F53R, E55V, S56D, R66G, F71Y, Q100A
notes: Variable regions fused to mouse constant regions (chimeric mouse IgG1 mAb) for SPR; also called hROR1 VH_14-5 / hROR1 VL_14-5

- Kd [9]: 131 nM
B15: Hum ROR1_14VH_(G4S)3x_VL_16 (antibody, mouse IgG1, V domains shown)
VH: B11 VH with K39Q, Y47W
VL: B4 VL with R24K, V33L, A34N, L46V, F53R, E55V, S56D, R66G, F71Y
notes: as for B4

- Kd [10]: 0.408 nM
- Kd [5]: 0.284 nM
- Kd (ROR1-His [7]): 0.408 nM
B16: Hum_design_14_variant4 (antibody, V domains shown)
VH: B1 VH with K3Q, K13Q, K19R, I40A, E42G, R44G, S114L
VL: B4 VL with R24K, V33L, A34N, F53R, E55V, S56D, R66G, F71Y, Q100A
notes: Variable regions fused to mouse constant regions (chimeric mouse IgG1 mAb) for SPR; also called hROR1 VH_14-4 / hROR1 VL_14-4

- Kd [10]: 1.3 nM
- Kd [5]: 0.959 nM
- Kd (ROR1-His [7]): 1.3 nM
B17: Hum_design_14_variant3 (antibody, V domains shown)
VH: B11 VH with T24A, M37V, K39Q, Y47W, V71R, K73N
VL: B4 VL with R24K, V33L, A34N, F53R, E55V, S56D, R66G, F83I, Q100G
notes: Variable regions fused to mouse constant regions (chimeric mouse IgG1 mAb) for SPR; also called hROR1 VH_14-3 / hROR1 VL_14-3

- Kd [10]: 0.209 nM
- Kd [5]: 0.201 nM
- Kd (ROR1-His [7]): 0.209 nM
B18: Hum ROR1_18VH_(G4S)3x_VL_14 (antibody, mouse IgG1, V domains shown)
VH: B4 VH
VL: B4 VL with R24K, V33L, A34N, F53R, E55V, S56D, R66G, F71Y, Q100A
notes: as for B4

More lines, now with the values behind:

B2: Hum ROR1_05VH_(G4S)3x_VL_14 (antibody, mouse IgG1, V domains shown)
VH: B11 VH with T24A, M37V, K39Q, Y47W, A49S, A60P, V71R, K73N
VL: B4 VL with R24K, V33L, A34N, F53R, E55V, S56D, R66G, F71Y, Q100A
notes: as for B4
- Kd [5]: 0.193 nM
- Kd (ROR1-His [7]): 0.355 nM
- Kd [8]: 0.355 nM

B3: Hum ROR1_07VH_(G4S)3x_VL_18 (antibody, mouse IgG1, V domains shown)
VH: EVQLVESGGGLVQPGGSLRLSCAASGFTFSSYAIIWVRQAPGKGLEWVARISRGGTTRYADSVKGRFTISADTSKETAYLQMNSLRAEDTAVYYCGRYDYDGYYAMDYWGQGTLVTVSS
VL: DIQLTQSPDSLAVSLGERATINCKASPDINSYLSWYQQRPGQPPRLLIHRANRLVDGVPDRFSGSGFGTDFTLTITSLQAEDVAIYYCLQYDEFPYTFGQGTKLEIK
notes: as for B4
- Kd [9]: 11.7 nM

B5: Hum ROR1_07VH_(G4S)3x_VL_05 (antibody, mouse IgG1, V domains shown)
VH: B3 VH
VL: B4 VL with R24K, V33L, A34S, F53R, E55V, S56D, R66G, F83I, V104L
notes: as for B4
- Kd [9]: 7.16 nM

B7: Clone 07 (antibody, V domains shown)
VH: B3 VH
VL: B4 VL
notes: Variable regions fused to mouse constant regions (chimeric mouse IgG1 mAb) for SPR; also called hROR1 VH_07 / hROR1 VL_07
- Kd [9]: ~90 nM

B9: Hum ROR1_05VH_(G4S)3x_VL_16 (antibody, mouse IgG1, V domains shown)
VH: B11 VH with T24A, M37V, K39Q, Y47W, A49S, A60P, V71R, K73N
VL: B4 VL with R24K, V33L, A34N, L46V, F53R, E55V, S56D, R66G, F71Y
notes: as for B4
- Kd [10]: 0.337 nM
- Kd [5]: 0.273 nM
- Kd (ROR1-His [7]): 0.337 nM

B10: Clone 04 (antibody, V domains shown)
VH: B11 VH with T24A, M37V, K39Q, Y47W, A49S, S50A, V71R, K73N
VL: B4 VL with R24Q, V33L, A34N, F53N, S56T, R66G, F83I, V104L
notes: Variable regions fused to mouse constant regions (chimeric mouse IgG1 mAb) for SPR; also called hROR1 VH_04 / hROR1 VL_04
- Kd [9]: ~55 nM

B12: Clone 14 (antibody, V domains shown)
VH: B11 VH with K39Q, Y47W
VL: B4 VL with R24K, V33L, A34N, F53R, E55V, S56D, R66G, F71Y, Q100A
notes: Variable regions fused to mouse constant regions (chimeric mouse IgG1 mAb) for SPR; also called hROR1 VH_14 / hROR1 VL_14
- Kd [10]: 1.45 nM
- Kd (ROR1-His [7]): 1.45 nM

B13: Hum ROR1_07VH_(G4S)3x_VL_16 (antibody, mouse IgG1, V domains shown)
VH: B3 VH
VL: B4 VL with R24K, V33L, A34N, L46V, F53R, E55V, S56D, R66G, F71Y
notes: as for B4
- Kd [9]: 4.08 nM

B14: Clone 05 (antibody, V domains shown)
VH: B11 VH with T24A, M37V, K39Q, Y47W, A49S, A60P, V71R, K73N
VL: B4 VL with R24K, V33L, A34S, F53R, E55V, S56D, R66G, F83I, V104L
notes: Variable regions fused to mouse constant regions (chimeric mouse IgG1 mAb) for SPR; also called hROR1 VH_05 / hROR1 VL_05
- Kd [10]: 35 nM
- Kd [5]: 35 nM
- Kd (ROR1-His [7]): 37.4 nM

B19: Clone 16 (antibody, V domains shown)
VH: EVQLVESGGGLVQPGGSLRLSCAASGFTFSSYAMSWVRQAPGKGLEWVASISRGGTTYYDPKFQDRATISADNSKNTAYLQMNSLRAEDTAVYYCGRYDYDGYYAMDYWGQGTLVTVSS
VL: B4 VL with R24K, V33L, A34N, L46V, F53R, E55V, S56D, R66G, F71Y
notes: Variable regions fused to mouse constant regions (chimeric mouse IgG1 mAb) for SPR; also called hROR1 VH_16 / hROR1 VL_16
- Kd [9]: 3.03 nM

B20: Clone 18 (antibody, V domains shown)
VH: B4 VH
VL: B3 VL
notes: Variable regions fused to mouse constant regions (chimeric mouse IgG1 mAb) for SPR; also called hROR1 VH_18 / hROR1 VL_18
- Kd [9]: 12.7 nM
